Columns and labels:
[1] = target: SARS-Cov-2 spike on lentiviral pseudovirus (SARS-Cov-2, UniProt P0DTC2 14-1273); assay: cell-based or functional assay
SARS-Cov-1-RBD-hFc = target: T1, SARS-Cov-1-RBD-hFc (SARS-Cov-1, UniProt P59594 306-527); assay: phage ELISA, antigen coated at 5 μg/ml, anti-M13-HRP
T1 construct: domain: RBD

B1: 4A10-hFc重组蛋白 (Fc fusion)
chain: EVQLLESGGGLVQPGGSLRLSCAASSFDFSDYEMSWVRQAPGKGLEWIGEIHHSGSTYYNPSLKSRVTISRDNSKNTLYLQMNSLRAEDTATYYCVKDFVVGETAEFSYWGQGTLVTVSS
For B1, the “IC50 of pseudovirus infection of ACE2-CHO cells (Luciferase活性)” value (shortened to “IC50”) [1] was 0.66 µg/mL.

B2: 4A10噬菌体 (single-domain antibody 4A10 displayed on phage) (VHH)
VHH: B1 chain
notes: also called 抗体4A10
B2: no binding (SARS-Cov-1-RBD-hFc).

B3: 4D5-hFc重组蛋白 (Fc fusion)
chain: EVQLLESGGGLVQPGGSLRLSCAASSFDFSSYEMSWVRQAPGKALEWIGEIHHSGSTYYNPSLKSRVTISRDNSKNTLYLQMNSLRAEDTAMYYCVKDLGFADHWGQGTLVTVSS
In the case of B3, the “IC50” value [1] is reported as 1.13 µg/mL.

B4: 4D5噬菌体 (single-domain antibody 4D5 displayed on phage) (VHH)
VHH: B3 chain
notes: also called 抗体4D5
B4: no binding (SARS-Cov-1-RBD-hFc).

B5: 4C5-hFc重组蛋白 (Fc fusion)
chain: EVQLLESGGGLVQPGGSLRLSCAASDFYFADYEMSWVRQAPGKGLEWIGSIYHSGSTYYNPSLKSRVTISRDNSKNTLYLQMNSLRAEDTAMYYCAREWHSGYDYWGQGTLVTVSS
With B5 the “IC50” value [1] was 2.32 µg/mL.

B6: 4C5噬菌体 (single-domain antibody 4C5 displayed on phage) (VHH)
VHH: B5 chain
notes: also called 抗体4C5
B6: no binding (SARS-Cov-1-RBD-hFc).

B7: 4A12-hFc重组蛋白 (Fc fusion)
chain: EVQLLESGGGLVQPGGSLRLSCAASDFAFSSYEMSWVRQAPGKGLEWIGEIHHSGSTYYNPSLKSLVTISRDNSKNTLYLQMNSLRAEDTAVYYCVKDFGHLGQMASWGQGTLVTVSS
For B7, the “IC50” value [1] was 0.19 µg/mL.

B8: 4A12噬菌体 (single-domain antibody 4A12 displayed on phage) (VHH)
VHH: B7 chain
notes: also called 抗体4A12
B8: no binding (SARS-Cov-1-RBD-hFc).

— CN111647076A (UNIV NANJING MEDICAL, dated 2020)
